# Measured values from PMC8427755.
# Legend:
# [1] = target: FcγRI on transfected Jurkat cells (human) (UniProt P12314)
# [2] = target: human FcRn expressed at the surface of Jurkat cells (human) (UniProt P55899); assay: flow cytometry on cells; competitive binding on FcRn-transfected Jurkat cells; Alexa-labelled rituximab (30 ug/mL) with the tested molecule, PBS pH 6.0; mean of 2 experiments
# [3] = target: FcγRI on transfected Jurkat cells (human) (UniProt P12314); assay: flow cytometry on cells; competitive binding on cells transfected with FcγRIIa-H131, FcγRIIa-R131, FcγRIIb or FcγRI; Alexa-labelled rituximab (30 ug/mL) with the tested molecule, PBS pH 7.4; mean of 2 experiments
# [4] = target: FcγRIIa-H131 on transfected cells (human) (UniProt P12318); assay: as above
# [5] = target: FcγRIIa-R131 on transfected HEK cells (human); assay: as above
# [6] = target: FcγRIIb on transfected HEK cells (human) (UniProt P31994); assay: as above
# [7] = target: FcγRIIIa-F158 on transfected Jurkat cells (human) (UniProt P08637); assay: flow cytometry on cells; competitive binding on FcγRIIIa-F158-transfected Jurkat cells; FITC-conjugated anti-FcγRIIIa 3G8 (0.5 ug/mL) with 17-2168 nM of the tested molecule, 20 min, 4°C, PBS pH 7.4; mean of 2 experiments
# [8] = target: biotinylated human FcRn (Acrobiosystem) (human) (UniProt P55899); assay: SPR; Biacore T200, sensor chip CAP; biotinylated human or mouse FcRn captured; samples injected in single cycle kinetic mode, 25°C; 20 mM sodium phosphate, 150 mM NaCl, 0.05% Tween 20, pH 6.0; 1:1 Langmuir model, steady state model for IVIg on hFcRn
# [9] = target: biotinylated mouse FcRn (Acrobiosystem) (mouse | not stated) (UniProt Q61559); assay: as above
# [10] = target: His-tagged hFcγRIIIa (Sinobiological) (human) (UniProt P08637); assay: SPR; Biacore T200, CM5 chip with anti-His capture; His-tagged hFcγRIIIa or mFcγRIV captured; 15 mM Tris-HCl, 150 mM NaCl, 0.005% Tween 20, pH 7.4, 25°C; single cycle (hFcγRIIIa) or multi cycle (mFcγRIV) kinetics; 1:1 Langmuir model, two state reaction model for LFBD192 on hFcγRIIIa
# [11] = target: His-tagged mFcγRIV (R&D Systems) (mouse); assay: as above
# [12] = target: Recombinant human FcγRIIIa V/CD16aV (human); assay: BLI; Octet RED96; His-tagged hFcγRIIIa V fixed on anti-penta-His (HIS-1K) biosensors; Fc samples 1,000-15.625 nM in kinetic buffer, pH 7.4; 1/1 model; means of 3 experiments
# [13] = target: recombinant human FcRn receptor (FcRn alpha-chain and beta2-microglobulin heterodimer), biotinylated (human) (UniProt P55899); assay: BLI; Octet RED96; biotinylated hFcRn fixed on streptavidin biosensors; Fc samples 200-3.125 nM; 0.1 M phosphate, 150 mM NaCl, 0.05% Tween 20, pH 6.0; 1/1 model; means of 3 experiments
# Sequence of UniProt P12314 (P12314 16-374): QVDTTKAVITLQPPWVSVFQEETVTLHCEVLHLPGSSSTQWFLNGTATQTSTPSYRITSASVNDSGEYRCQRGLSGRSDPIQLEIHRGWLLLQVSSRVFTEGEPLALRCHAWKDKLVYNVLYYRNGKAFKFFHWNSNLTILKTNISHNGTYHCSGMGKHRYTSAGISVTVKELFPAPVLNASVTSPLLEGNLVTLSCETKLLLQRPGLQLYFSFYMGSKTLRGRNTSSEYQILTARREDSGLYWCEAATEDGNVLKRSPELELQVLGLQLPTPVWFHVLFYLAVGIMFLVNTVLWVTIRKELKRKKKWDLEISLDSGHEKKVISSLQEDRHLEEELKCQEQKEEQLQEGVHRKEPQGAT
# Sequence of UniProt P31994 (P31994 43-310): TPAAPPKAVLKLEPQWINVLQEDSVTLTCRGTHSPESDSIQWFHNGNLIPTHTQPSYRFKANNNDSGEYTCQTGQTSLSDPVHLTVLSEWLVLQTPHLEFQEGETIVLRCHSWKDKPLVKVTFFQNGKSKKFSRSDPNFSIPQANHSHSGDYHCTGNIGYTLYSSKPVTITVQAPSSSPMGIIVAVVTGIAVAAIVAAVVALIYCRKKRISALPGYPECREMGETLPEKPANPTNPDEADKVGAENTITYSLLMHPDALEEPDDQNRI
# Sequence of UniProt P08637 (P08637 17-254): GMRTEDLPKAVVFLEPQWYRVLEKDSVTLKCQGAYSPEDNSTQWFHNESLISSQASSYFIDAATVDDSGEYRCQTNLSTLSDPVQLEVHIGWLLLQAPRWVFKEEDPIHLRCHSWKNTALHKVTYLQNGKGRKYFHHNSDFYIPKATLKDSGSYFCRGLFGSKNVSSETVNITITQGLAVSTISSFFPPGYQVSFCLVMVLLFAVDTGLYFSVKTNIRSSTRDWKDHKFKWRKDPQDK
# Sequence of UniProt P12318 (P12318 34-317): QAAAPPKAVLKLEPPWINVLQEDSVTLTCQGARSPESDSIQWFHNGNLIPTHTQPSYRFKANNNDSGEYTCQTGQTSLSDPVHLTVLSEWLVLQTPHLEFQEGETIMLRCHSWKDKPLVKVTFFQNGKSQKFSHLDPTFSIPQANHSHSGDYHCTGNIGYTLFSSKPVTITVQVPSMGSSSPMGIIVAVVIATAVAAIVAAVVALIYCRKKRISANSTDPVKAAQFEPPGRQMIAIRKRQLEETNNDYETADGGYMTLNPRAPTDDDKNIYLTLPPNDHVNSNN
IC50 of inhibition of IL-2 secretion by FcγRI-transfected Jurkat cells co-cultured with Raji cells coated with rituximab [1] [nM],inhibitory concentration at 25% of IL-2 secretion by FcγRI-transfected Jurkat cells co-cultured with Raji cells coated with rituximab [1] [nM],IC50 [2] [nM],IC50 [3] [nM],IC50 [4] [nM],IC50 [5] [nM],IC50 [6] [nM],IC50 [7] [nM],Kd [8] [nM],Kd [9] [nM],Kd [10] [nM],Kd [11] [nM],Kd [12] [nM],Kd [13] [nM],Substance
> 1950,1110,1360,880,671,1310,761,1680,469,17.1,40,554,–,–,intravenous immunoglobulin (IVIg)
–,–,–,–,–,–,–,–,–,–,–,–,504,36.5,rFc-WT (non-mutated Fc fragment of human IgG1) (domain or fragment)
